T1: soybean ATP sulfurylase isoform 1 (GmATPS1) (Glycine max, UniProt Q8SAG1)
T1 construct: homodimer
T1 sequence (Q8SAG1 49-462): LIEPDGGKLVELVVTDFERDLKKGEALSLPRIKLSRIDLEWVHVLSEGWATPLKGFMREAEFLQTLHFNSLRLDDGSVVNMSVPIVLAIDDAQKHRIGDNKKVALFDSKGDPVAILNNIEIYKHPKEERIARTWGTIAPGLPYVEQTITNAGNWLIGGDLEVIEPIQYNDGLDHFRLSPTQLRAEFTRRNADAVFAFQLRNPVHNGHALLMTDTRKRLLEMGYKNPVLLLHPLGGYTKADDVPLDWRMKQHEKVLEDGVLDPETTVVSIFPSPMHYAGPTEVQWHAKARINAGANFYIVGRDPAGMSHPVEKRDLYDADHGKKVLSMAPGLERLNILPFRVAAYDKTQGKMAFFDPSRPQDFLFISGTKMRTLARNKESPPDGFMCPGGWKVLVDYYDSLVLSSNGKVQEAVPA


Columns and labels:
[1] = molecular target: T1, soybean ATP sulfurylase isoform 1 (GmATPS1); assay: dead-end inhibition kinetics, coupled spectrophotometric assay of APS synthesis; assay type: biochemical
purified protein [2] = substrate: O=S(=O)(O)O; assay: purified protein; conditions: ATP, Mg2+ binds after ATP; chlorate competes with it
purified protein [3] = substrate: Nc1ncnc2c1ncn2[C@@H]1O[C@H](COP(=O)(O)OP(=O)(O)OP(=O)(O)O)[C@@H](O)[C@H]1O; assay: purified protein; conditions: Mg2+ binds first in the forward reaction

Molecule | Ki [1] [µM] | Km (purified protein [2]) | Km (purified protein [3]) [µM]
[O-][Cl+2]([O-])O [chlorate] | 103 ± 19 |  | 
soybean ATP sulfurylase isoform 1 (GmATPS1) (Glycine max) (protein) LIEPDGGKLVELVVTDFERDLKKGEALSLPRIKLSRIDLEWVHVLSEGWATPLKGFMREAEFLQTLHFNSLRLDDGSVVNMSVPIVLAIDDAQKHRIGDNKKVALFDSKGDPVAILNNIEIYKHPKEERIARTWGTIAPGLPYVEQTITNAGNWLIGGDLEVIEPIQYNDGLDHFRLSPTQLRAEFTRRNADAVFAFQLRNPVHNGHALLMTDTRKRLLEMGYKNPVLLLHPLGGYTKADDVPLDWRMKQHEKVLEDGVLDPETTVVSIFPSPMHYAGPTEVQWHAKARINAGANFYIVGRDPAGMSHPVEKRDLYDADHGKKVLSMAPGLERLNILPFRVAAYDKTQGKMAFFDPSRPQDFLFISGTKMRTLARNKESPPDGFMCPGGWKVLVDYYDSLVLSSNGKVQEAVPA |  | 1,030±280 μM | 221 ± 41
